B1: nanobody CA9865 (VHH)
VHH: QVQLVESGGGLVQAGGSLRLSCAPSGRTSSTYTMGWFRQAPGKEREFVAAISWTGTPYYADSVKGRFTISRDNAKNTVYLQMNSLKPEDTAVYYCAAARPGLFIFVSDYARTAKYDYWGQGTQVTVPP
notes: the nanobody part of PMb65, whose structure is deposited as PDB 8G8W; phage display library in the pMESy4 vector; also called nanobody 65
B2: nanobody CA9871 (VHH)
VHH: QVQLVESGGGLVQAGDSLRLSCAASGLTLKNYAMGWFRQAPGKEHEFVAVISWSGSGTSYADSVEGRFTISRDNAKNTAFLQMSSLKPEDTAVYYCAARDGGYGSRWPDEYTYWGQGTQVTVPP
notes: the nanobody part of PMb71, whose structure is deposited as PDB 8G8W; phage display library in the pMESy4 vector; also called nanobody 71
B3: human uncoupling protein 1 (UCP1) (natural protein, UniProt P25874 2-307, looked up)
chain: GGLTASDVHPTLGVQLFSAGIAACLADVITFPLDTAKVRLQVQGECPTSSVIRYKGVLGTITAVVKTEGRMKLYSGLPAGLQRQISSASLRIGLYDTVQEFLTAGKETAPSLGSKILAGLTTGGVAVFIGQPTEVVKVRLQAQSHLHGIKPRYTGTYNAYRIIATTEGLTGLWKGTTPNLMRSVIINCTELVTYDLMKEAFVKNNILADDVPCHLVSALIAGFCATAMSSPVDVVKTRFINSPPGQYKSVPNCAMKVFTNEGPTAFFKGLVPSFLRLGSWNVIMFVCFEQLKRELSKSRQTMDCAT
notes: wild-type human UCP1, UniProt P25874; the forward primer joins the His8 tag and Factor Xa site to codon 2 of UCP1, the reverse primer runs to the stop codon; also called SLC25A7; not shown: His8, N-terminal, cleaved

Holding throughout (details): both partners purified
Data set [1] concerns the target B3. As to the kind of experiment: thermostability shift assay (cysteine-reactive probe CPM); 5 μg purified human UCP1 with an equimolar amount of nanobody, with or without 1 mM GTP, 1 hour at 4°C; 25° to 90°C at 5.6°C/min.
In data set [2] the target is T1, Pro-macrobody PMb65 (nanobody CA9865 fused with maltose-binding protein via a Pro-Pro linker) (llama (Lama glama) | ).
T1 construct: nanobody CA9865; the structure with PMb65 is deposited as PDB 8G8W (only regions of PMb65 are modelled); Pro-Pro linker between nanobody and MBP; parts of it are removed from the deposited model; also called cytoplasmic Pro-macrobody; source: E. coli MC1061, purified (Ni-NTA, 3C cleavage, Strep-Tactin XT); not shown: MBP with deca-His tag, N-terminal, cleaved
Description: cryo-EM structure; purified UCP1, PMb65 and PMb71 mixed stoichiometrically, overnight at 4°C, with 2 mM GTP and 2 mM D-maltose; 20 mM MES pH 6.0, 150 mM NaCl, 0.02% decyl maltose neopentyl glycol.

Data set [3] has as its target T2, Pro-macrobody PMb71 (nanobody CA9871 fused with maltose-binding protein via a Pro-Pro linker) (llama (Lama glama) | ).
T2 construct: nanobody CA9871; the structure with PMb71 is deposited as PDB 8G8W; Pro-Pro linker between nanobody and MBP; also called matrix Pro-macrobody; source: E. coli MC1061, purified (Ni-NTA, 3C cleavage, Strep-Tactin XT); not shown: MBP with deca-His tag, N-terminal, cleaved
The data set is described as above.

For B1, the “thermal stabilisation (shift of Tm)” value in data set [1] stood at 5 °C.

For B2, the “thermal stabilisation (shift of Tm)” value in data set [1] was found to be 0.8 °C.

Take B3: the binding result in data set [2] and in data set [3] was “binds” each time.

The record behind these values is publication PMC10413660, “Structural basis of purine nucleotide inhibition of human uncoupling protein 1” (Science Advances, 2023).
